# Article PMC3155531, “In Vitro and Ex Vivo Analysis of CHRNA3 and CHRNA5 Haplotype Expression”
# Target: SP-1 (rhSP-1) (Homo sapiens, UniProt P08047 2-785)
# Assay: EMSA; 300 ng rhSP-1, 125 fmol probe; competed by 50x/100x cold probe; Promega Gel Shift Assay System (binding buffer, salt and pH not given); 10 min preincubation then 20 min with probe at 25 C; 4% non-denaturing PAGE
# Conditions: protein: recombinant; label: 32P 5' end; blunt
# SP-1 (rhSP-1), sequence (P08047 2-785): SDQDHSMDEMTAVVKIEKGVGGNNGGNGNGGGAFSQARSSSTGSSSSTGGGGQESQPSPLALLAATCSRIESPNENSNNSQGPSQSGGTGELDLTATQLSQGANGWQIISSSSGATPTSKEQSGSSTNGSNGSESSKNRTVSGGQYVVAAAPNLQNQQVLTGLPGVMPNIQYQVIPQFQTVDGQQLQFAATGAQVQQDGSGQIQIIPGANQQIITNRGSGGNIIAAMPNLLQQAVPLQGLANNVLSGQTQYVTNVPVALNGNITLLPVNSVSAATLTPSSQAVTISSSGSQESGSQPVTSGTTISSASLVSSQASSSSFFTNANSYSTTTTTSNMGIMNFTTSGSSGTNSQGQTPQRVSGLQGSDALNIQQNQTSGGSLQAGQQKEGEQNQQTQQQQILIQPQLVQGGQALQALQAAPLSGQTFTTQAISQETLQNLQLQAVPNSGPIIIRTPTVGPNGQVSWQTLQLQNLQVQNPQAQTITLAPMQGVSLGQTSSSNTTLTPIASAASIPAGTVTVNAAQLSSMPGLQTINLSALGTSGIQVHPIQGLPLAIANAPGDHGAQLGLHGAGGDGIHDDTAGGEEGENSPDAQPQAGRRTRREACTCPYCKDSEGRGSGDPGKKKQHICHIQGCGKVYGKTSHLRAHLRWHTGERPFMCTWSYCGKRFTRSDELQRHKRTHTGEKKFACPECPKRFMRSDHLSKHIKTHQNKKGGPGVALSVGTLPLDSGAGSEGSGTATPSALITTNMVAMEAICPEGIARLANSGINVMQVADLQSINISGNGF
binder,measurement,value
dsA5pInDel (CHRNA5 promoter rs3841324 region) (dsDNA) DNA 1: GATTGGGCGGGGCCAGAGGGAAATAGGGG DNA 2: CCCCTATTTCCCTCTGGCCCCGCCCAATC,binding result,binds
